# B1: Interferon regulatory factor 3 (Homo sapiens), Q14653 (parent)
# chain: MGTPKPRILPWLVSQLDLGQLEGVAWVNKSRTRFRIPWKHGLRQDAQQEDFGIFQAWAEATGAYVPGRDKPDLPTWKRNFRSALNRKEGLRLAEDRSKDPHDPHKIYEFVNSGVGDFSQPDTSPDTNGGGSTSDTQEDILDELLGNMVLAPLPDPGPPSLAVAPEPCPQPLRSPSLDNPTPFPNLGPSENPLKRLLVPGEEWEFEVTAFYRGRQVFQQTISCPEGLRLVGSEVGDRTLPGWPVTLPDPGMSLTDRGVMSYVRHVLSCLGGGLALWRAGQWLWAQRLGHCHTYWAVSEELLPNSGHGPDGEVPKDKEGGVFDLGPFIVDLITFTEGSGRSPRYALWFCVGESWPQDQPWTKRLVMVKVVPTCLRALVEMARVGGASSLENTVDLHISNSHPLSLTSDQYKAYLQDLVEGMDFQGPGES
# Variants of: B1
# Conditions: with cbp_human CREBBP
row,Variant,effect of a mutation on the interaction
1,E201A;E203A,disrupting interaction
2,S221A,disrupting interaction

# Next, values leading:
row,effect of a mutation on the interaction,Variant
1,disrupting interaction,C371A;L375A;M378A
2,disrupting interaction,L322A;P324A;I326A;V327A;L329A;I330A

# Reference: IntAct's records for PubMed 16154084
